Data as given in article PMC3660597, “Investigation of Specificity Determinants in Bacterial tRNA-Guanine Transglycosylase Reveals Queuine, the Substrate of Its Eucaryotic Counterpart, as Inhibitor” (PLoS ONE, 2013).

System: Tgt "wild type" (tRNA-guanine transglycosylase) (Zymomonas mobilis)
Experiment: MST
Conditions: buffer, salt, pH and temperature not given in the material

Question: tRNATyr was tested. Which Kd did it give?
Answer: 36.2 nM
